Assay results: article PMC4881948, “X-Ray Solution Scattering Study of Four Escherichia coli Enzymes Involved in Stationary-Phase Metabolism” (PLoS ONE, 2016)

B1: Class I fructose-1,6-bisphosphate aldolase (FbaB) from E. coli (enzyme, UniProt P0A991 1-350, looked up)
chain: MTDIAQLLGKDADNLLQHRCMTIPSDQLYLPGHDYVDRVMIDNNRPPAVLRNMQTLYNTGRLAGTGYLSILPVDQGVEHSAGASFAANPLYFDPKNIVELAIEAGCNCVASTYGVLASVSRRYAHRIPFLVKLNHNETLSYPNTYDQTLYASVEQAFNMGAVAVGATIYFGSEESRRQIEEISAAFERAHELGMVTVLWAYLRNSAFKKDGVDYHVSADLTGQANHLAATIGADIVKQKMAENNGGYKAINYGYTDDRVYSKLTSENPIDLVRYQLANCYMGRAGLINSGGAAGGETDLSDAVRTAVINKRAGGMGLILGRKAFKKSMADGVKLINAVQDVYLDSKITIA
notes: Class I fructose bisphosphate aldolase FbaB, E. coli, UniProt A0A037Y4V8; 350 amino acids, calculated monomer 38.1 kDa; Decamer in solution by SAXS; also called Class I Fba; copies: 10
B2: glutamate decarboxylase (GadA) from E. coli (enzyme)
chain: MDQKLLTDFRSELLDSRFGAKAISTIAESKRFPLHEMRDDVAFQIINDELYLDGNARQNLATFCQTWDDENVHKLMDLSINKNWIDKEEYPQSAAIDLRCVNMVADLWHAPAPKNGQAVGTNTIGSSEACMLGGMAMKWRWRKRMEAAGKPTDKPNLVCGPVQICWHKFARYWDVELREIPMRPGQLFMDPKRMIEACDENTIGVVPTFGVTYTGNYEFPQPLHDALDKFQADTGIDIDMHIDAASGGFLAPFVAPDIVWDFRLPRVKSISASGHKFGLAPLGCGWVIWRDEEALPQELVFNVDYLGGQIGTFAINFSRPAGQVIAQYYEFLRLGREGYTKVQNASYQVAAYLADEIAKLGPYEFICTGRPDEGIPAVCFKLKDGEDPGYTLYDLSERLRLRGWQVPAFTLGGEATDIVVMRIMCRRGFEMDFAELLLEDYKASLKYLSDHPKLQGIAQQNSFKHT
notes: glutamate decarboxylase GadA, E. coli; Hexamer at pH 4.6, mixture of hexamers and dimers at pH 7.5; also called GadA low-salt
B3: inorganic pyrophosphatase (PPase) from E. coli (enzyme)
chain: SLLNVPAGKDLPEDIYVVIEIPANADPIKYEIDKESGALFVDRFMSTAMFYPCNYGYINHTLSLDGDPVDVLVPTPYPLQPGSVIRCRPVGVLKMTDEAGEDAKLVAVPHSKLSKEYDHIKDVNDLPELLKAQIAHFFEHYKDLEKGKWVKVEGWENAEAAKAEIVASFERAKNK
notes: inorganic pyrophosphatase, E. coli; Hexamer in solution by SAXS

Experiments:
[1] = molecular target: the molecule itself; assay: SAXS; solution scattering of the single protein, standard 50 mM Tris pH 7.5 buffer, 10°C, four concentrations 1.4-10.8 mg/ml; GadA stored in 100 mM Na-acetate, 10 mM NaCl, 1 mM DTT pH 4.6 and raised to pH 7.5 immediately before; oligomers from molecular mass, rigid-body modelling and OLIGOMER fits
[2] = molecular target: the molecule itself; assay: SEC + AUC; GadA at pH 7.5: Tris-HCl, 10 mM NaCl, 1 mM DTT pH 7.5; SEC on Superdex 200 10/300 GL, load 5 mg/ml; sedimentation velocity at 20°C, 0.4 mg/ml
[3] = molecular target: the molecule itself; assay: SEC + AUC; GadA at pH 4.6: 100 mM Na-acetate, 10 mM NaCl, 1 mM DTT pH 4.6; SEC on Superdex 200 10/300 GL, load 5 mg/ml; sedimentation velocity at 20°C, 0.4 mg/ml

Protein	stoichiometry N [1]	stoichiometry N [2]	stoichiometry N [3]
B1	10		
B2		2	6
B3	6		
